Legend:
[1] = test system: TALEN Beta2M T01 RIGHT (artificial); experiment: cell_activity; settings: primary T cells, 10 ug TALEN mRNA as pair with left monomer, 3 days post electroporation; 38% at 2 ug; untransfected nearly 100% positive
[2] = test system: TALEN Beta2M T01 LEFT (artificial); experiment: cell_activity; settings: primary T cells, 10 ug TALEN mRNA as pair with right monomer, 3 days post electroporation; 38% at 2 ug; untransfected nearly 100% positive

TTCTGGCCTGGAGGCTA (double strand) [B2M T01 target, right half-site]
activity (% beta2-m negative cells) [1]: 80

TGGCCTTAGCTGTGCTC (double strand) [B2M T01 target, left half-site]
activity (% beta2-m negative cells) [2]: 80
